The values that follow come from paper PMC5590881, “Xenon for tunnelling analysis of the efflux pump component OprN” (PLoS ONE, 2017).

The series concerns the molecule itself. Nature of the series: crystal structure; OprN-wt crystals and OprN-Xe crystals (OprN-wt crystals under 2 MPa xenon), space group I4, T = 100 K; grown at 18°C in 100 mM sodium acetate pH 5.4, 0.8–1.1 M sodium formate, 9–11% PEG 4000; protein in 0.9% β-OG.

In general, stoichiometry N refers to a count of units in the complex or per binding partner.

B1: OprN, the outer membrane channel of the MexEF efflux pump from Pseudomonas aeruginosa (natural protein)
chain: CTVGPDYRTPDTAAAKIDATASKPYDRSRFESLWWKQFDDPTLNQLVEQSLSGNRDLRVAFARLRAARALRDDVANDRFPVVTSRASADIGKGQQPGVTEDRVNSERYDLGLDSAWELDLFGRIRRQLESSDALSEAAEADLQQLQVSLIAELVDAYGQLRGAQLREKIALSNLENQKESRQLTEQLRDAGVGAELDVLRADARLAATAASVPQLQAEAERARHRIATLLGQRPEELTVDLSPRDLPAITKALPIGDPGELLRRRPDIRAAERRLAASTADVGVATADLFPRVSLSGFLGFTAGRGSQIGSSAARAWSVGPSISWAAFDLGSVRARLRGAKADADAALASYEQQVLLALEESANAFSDYGKRQERLVSLVRQSEASRAAAQQAAIRYREGTTDFLVLLDAEREQLSAEDAQAQAEVELYRGIVAIYRSLGGGWQPSA
modifications: palmitoylation at the N-terminus Cys residue (dual acylation observed at the same cysteine)
notes: OprN, outer membrane factor of the MexEF-OprN efflux pump, Pseudomonas aeruginosa; the oprN gene was cloned; the chain in the crystal begins at the acylated Cys; 1341 amino acids built in the trimer; Homotrimer in the crystal (chains A, B, C); also called OprN-wt; OprN-Xe; source: C43-ΔacrB strain, pBAD-33, purified from the outer membrane (DDM, β-OG; Ni-NTA, Superose 6 SEC); not shown: His6, …
As to B1, the “stoichiometry N” value turned out to be 3.
